The source of these data is paper PMC4218836, “Generation of a Single Chain Antibody Variable Fragment (scFv) to Sense Selectively RhoB Activation” (PLoS ONE, 2014).

One assay concerns the target GST-RhoAL63 (Homo sapiens (species assumed), UniProt P61586, L63).
Another assay has as its target GST-RhoCL63 (Homo sapiens (species assumed), UniProt P08134, L63).
The target of assay [1] is T1, GST-RhoBL63 (Homo sapiens (species assumed), UniProt P62745, L63).
The target of assay [2] is T2, recombinant wild type GST-RhoB (Homo sapiens (species assumed), UniProt P62745).
T2 construct: RhoB wild type, loaded with GDP or GTPγS; also called RhoBwt; GST-RhoBwt; source: E. coli BL21, crude bacterial extract, nucleotide-loaded
Put plainly: ELISA; purified scFvs on wild type GST-Rho loaded with GTPγS (from crude bacterial extracts) and captured on glutathione coated plates; GDP-loaded GST-Rho beside it. Conditions: one partner purified. Background: ELISA stands for enzyme-linked immunosorbent assay.

The target of the next assay is T3, 6xHis-RhoAL63 (Homo sapiens (species assumed), UniProt P61586, L63).
T3 construct: RhoA, mutant L63, cDNA in the pHIS parallel2 vector; also called 6his-RhoL63; source: E. coli BL21, purified (Ni-NTA, native condition); not shown: 6xHis, N-terminal, kept
Put plainly: ELISA; competitive ELISA (method of Friguet): purified scFvs (10^-9-10^-8 M) incubated until equilibrium (30 min, 23-25°C) with a range of concentrations of soluble 6xHis-RhoL63, free scFv then quantified on GST-Rho-coated plates with anti-c-myc-HRP; nonlinear regression. Conditions: both partners purified.

A further assay addresses T4, 6xHis-RhoBL63 (Homo sapiens (species assumed), UniProt P62745, L63).
T4 construct: RhoB, mutant L63, cDNA in the pHIS parallel2 vector; also called 6his-RhoL63; source: E. coli BL21, purified (Ni-NTA, native condition); not shown: 6xHis, N-terminal, kept
The assay is described as above. Conditions: both partners purified.

Assay [3] deals with T1, GST-RhoBL63. The experiment in a line: SPR; BIAcore T200; GST fusion Rho captured (about 1000 RU) by anti-GST antibody on CM5 chip, scFvs injected 6.25-100 nM, single-cycle kinetics, HBS-P pH 7.4, 25°C, GST alone as reference channel, 1:1 Langmuir model. Conditions: both partners purified.
The target of the next assay is T5, endogenous RhoB (human (endogenous in HeLa), UniProt P62745).
T5 construct: RhoB, endogenous in HeLa S3 cells; source: endogenous, HeLa cell extract
The experiment in a line: pull-down; CBD-pulldown: scFv-bound chitin beads (0,5-1 µg) with HeLa cell extracts loaded with GTPγS (100 µM), 45 min at 4°C; Western blot with anti-RhoA, anti-RhoB, anti-RhoC; GDP-loaded extracts beside it. Conditions: one partner purified. For orientation: Immunoblotting shows a protein as a band on a membrane.

For a further assay, the target named is T6, endogenous RhoA (human (endogenous in HeLa), UniProt P61586).
T6 construct: RhoA, endogenous in HeLa S3 cells; source: endogenous, HeLa cell extract
Described as above. As to conditions: one partner purified.

The next assay concerns the target T7, endogenous RhoC (Homo sapiens (HeLa S3), UniProt P08134).
T7 construct: RhoC, endogenous in HeLa S3 cells; source: endogenous, HeLa cell extract
The description is as above. Conditions: one partner purified.

The target in assay [4] is T8, recombinant wild type GST-RhoA (Homo sapiens (species assumed), UniProt P61586).
T8 construct: RhoA wild type, loaded with GDP or GTPγS; also called RhoAwt; RhoA-GTPγS; source: E. coli BL21, crude bacterial extract, nucleotide-loaded
The experiment in a line: ELISA; purified scFvs on wild type GST-Rho loaded with GTPγS (from crude bacterial extracts) and captured on glutathione coated plates; GDP-loaded GST-Rho beside it. Conditions: one partner purified.

T2 sequence (P62745 whole entry): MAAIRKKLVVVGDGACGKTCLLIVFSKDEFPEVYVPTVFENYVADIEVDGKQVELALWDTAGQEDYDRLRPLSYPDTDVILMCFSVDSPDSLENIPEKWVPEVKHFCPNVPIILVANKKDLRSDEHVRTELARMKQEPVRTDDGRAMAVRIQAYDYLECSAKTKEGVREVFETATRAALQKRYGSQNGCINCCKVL
T3 sequence (P61586 other isoform, or with tags, fused parts or gaps L63 | L63): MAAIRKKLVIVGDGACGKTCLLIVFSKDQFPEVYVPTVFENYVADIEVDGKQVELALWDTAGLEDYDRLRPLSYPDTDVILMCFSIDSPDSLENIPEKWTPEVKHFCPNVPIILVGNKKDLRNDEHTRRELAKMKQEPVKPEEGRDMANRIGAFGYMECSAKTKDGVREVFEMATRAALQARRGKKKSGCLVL
T6 sequence (P61586 whole entry): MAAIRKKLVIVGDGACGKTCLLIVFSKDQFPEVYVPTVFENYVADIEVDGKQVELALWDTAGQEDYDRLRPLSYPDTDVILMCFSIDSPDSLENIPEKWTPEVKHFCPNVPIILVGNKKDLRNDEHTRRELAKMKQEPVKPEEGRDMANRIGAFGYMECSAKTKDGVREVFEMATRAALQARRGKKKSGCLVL
T8 sequence (P61586 whole entry): as above
T5 sequence (P62745 whole entry): as the sequence (P62745 whole entry) above
T7 sequence (P08134 whole entry): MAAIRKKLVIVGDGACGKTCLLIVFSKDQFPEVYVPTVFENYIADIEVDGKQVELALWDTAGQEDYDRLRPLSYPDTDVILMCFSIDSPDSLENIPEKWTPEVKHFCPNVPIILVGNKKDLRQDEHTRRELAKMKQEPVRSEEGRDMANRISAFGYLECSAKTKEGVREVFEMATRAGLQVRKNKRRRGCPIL
T4 sequence (P62745 other isoform, or with tags, fused parts or gaps L63 | L63): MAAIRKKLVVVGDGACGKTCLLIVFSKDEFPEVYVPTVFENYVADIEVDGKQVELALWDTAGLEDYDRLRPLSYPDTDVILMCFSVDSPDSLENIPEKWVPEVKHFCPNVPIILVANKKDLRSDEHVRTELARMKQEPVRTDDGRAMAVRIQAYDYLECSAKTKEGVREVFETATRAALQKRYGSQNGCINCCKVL
T1 sequence (P62745 other isoform, or with tags, fused parts or gaps L63 | L63): as above
Chain of GST-RhoCL63 (P08134 other isoform, or with tags, fused parts or gaps L63 | L63): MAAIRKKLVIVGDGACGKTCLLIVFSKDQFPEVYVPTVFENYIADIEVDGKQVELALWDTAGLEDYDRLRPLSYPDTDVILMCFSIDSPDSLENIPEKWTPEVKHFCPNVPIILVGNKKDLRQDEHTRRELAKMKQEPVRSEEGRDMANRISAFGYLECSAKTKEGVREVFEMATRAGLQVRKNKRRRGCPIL
Chain of GST-RhoAL63 (P61586 other isoform, or with tags, fused parts or gaps L63 | L63): as the sequence (P61586 other isoform, or with tags, fused parts or gaps L63 | L63) above

B1: C1 (scFvC1) (antibody, V domains shown)
VH: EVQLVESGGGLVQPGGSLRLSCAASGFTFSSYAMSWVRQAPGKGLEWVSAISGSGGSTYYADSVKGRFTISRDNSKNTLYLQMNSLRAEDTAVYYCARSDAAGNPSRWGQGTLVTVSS
VL: SSELTQDPAVSVALGQTVRITCQGDSLRSYYASWYQQKPGQAPVLVIYGKNNRPSGIPDRFSGSSSGNTASLTITGAQAEDEADYYCNSRDSSGNHAYVFGGGTKLTVL
Consider B1, for which the binding result in the assay with GST-RhoAL63, with GST-RhoCL63 and in the assay with GST-RhoBL63 [1] was “binds” each time.

B2: scFvE3 (soluble, in fusion with the N-terminal domain of the phage P3 protein) (scFv, V domains shown)
VH: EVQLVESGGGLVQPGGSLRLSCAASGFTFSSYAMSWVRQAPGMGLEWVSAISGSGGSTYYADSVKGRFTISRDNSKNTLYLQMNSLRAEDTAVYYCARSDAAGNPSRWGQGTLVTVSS
VL: SSELTQDPAVSVALGQTVRITCQGDSLRSYYTSWYQQKPGQAPVRVIYGKNNRPSGVPDRFSGSSSGNTASLTITGAQAEDEADYYCNSRDSSGNHAYVFGGGTKLTVL
notes: evolved variant of scFvC1 with 4 substitutions located within the scaffold, without D100N; Isolated by subtractive panning (GST-RhoAL63 counter-selection, GST-RhoBL63 selection); also called clone E3; source: E. coli XL1 blue, periplasmic fraction, purified (Ni-NTA); not shown: NP3 (N-terminal domain of the phage P3 protein), C-terminal, kept
For B2, in assay [2], the binding result is listed as “binds”. Also, the Kd (commonly a measure of binding affinity in units of concentration) was found to be 22.9 nM with 6xHis-RhoAL63 and 3.63 nM with 6xHis-RhoBL63. For the same molecule, the “fold higher affinity than for GST-RhoAL63” value with GST-RhoBL63 [3] came to 10 fold.

B3: scFvF7-NP3-CBD (scFvF7 in fusion with the Chitin Binding Domain, on chitin beads) (scFv, V domains shown)
VH: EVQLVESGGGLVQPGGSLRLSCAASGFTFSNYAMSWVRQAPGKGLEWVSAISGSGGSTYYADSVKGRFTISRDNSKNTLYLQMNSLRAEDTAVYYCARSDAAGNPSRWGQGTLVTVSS
VL: SSELTQDPAVSVALGQTVRITCQGDSLRSYYASWYQQKPGQAPVLVIYGKNNRPSGIPDRFSGSSSGNTASLTITGAQAEDEADYYCNTRDSSGNHAYVFGGGTKLTVL
notes: as the scFv of m1; Order scFv, NP3, CBD from the plasmid pHEN-scFv-NCBD; not shown: NP3 (N-terminal domain of the phage P3 protein), C-terminal, kept
On to B3, for which the binding result in the assay with endogenous RhoB, with endogenous RhoA and with endogenous RhoC was “binds” in each case.

B4: scFvD10-NP3-CBD (scFvD10 in fusion with the Chitin Binding Domain, on chitin beads) (scFv, V domains shown)
VH: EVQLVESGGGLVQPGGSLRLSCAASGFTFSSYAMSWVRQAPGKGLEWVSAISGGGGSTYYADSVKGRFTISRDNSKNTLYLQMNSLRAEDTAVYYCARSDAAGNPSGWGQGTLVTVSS
VL: SSELTQDPAVSVALGQTVRITCQGDSLRSYYASWYQQKPGQAPVLVIYGKNNRPSGIPDRFSGSSSGNTASLTITGAQAEDEADYYCNSRDSSGNHAYVFGGGTKLTVL
notes: as the scFv of m2; Order scFv, NP3, CBD from the plasmid pHEN-scFv-NCBD; not shown: NP3 (N-terminal domain of the phage P3 protein), C-terminal, kept
In the case of B4, the binding result with endogenous RhoA and in the assay with endogenous RhoC was “binds” throughout.

B5: scFvE3-NP3-CBD (scFvE3 in fusion with the Chitin Binding Domain, on chitin beads) (scFv, V domains shown)
VH: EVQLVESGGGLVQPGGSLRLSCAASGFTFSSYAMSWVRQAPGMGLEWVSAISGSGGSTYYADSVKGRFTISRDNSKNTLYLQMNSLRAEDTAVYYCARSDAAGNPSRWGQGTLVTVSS
VL: SSELTQDPAVSVALGQTVRITCQGDSLRSYYTSWYQQKPGQAPVRVIYGKNNRPSGVPDRFSGSSSGNTASLTITGAQAEDEADYYCNSRDSSGNHAYVFGGGTKLTVL
notes: as the scFv of m3; Order scFv, NP3, CBD from the plasmid pHEN-scFv-NCBD; not shown: NP3 (N-terminal domain of the phage P3 protein), C-terminal, kept
With B5, the binding result with endogenous RhoB is reported as “binds”.

B6: scFvF7 (soluble, in fusion with the N-terminal domain of the phage P3 protein) (scFv, V domains shown)
VH: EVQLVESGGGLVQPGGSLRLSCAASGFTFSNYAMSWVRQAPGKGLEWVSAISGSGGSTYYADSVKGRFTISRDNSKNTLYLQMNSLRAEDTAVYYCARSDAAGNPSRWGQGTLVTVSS
VL: SSELTQDPAVSVALGQTVRITCQGDSLRSYYASWYQQKPGQAPVLVIYGKNNRPSGIPDRFSGSSSGNTASLTITGAQAEDEADYYCNTRDSSGNHAYVFGGGTKLTVL
notes: evolved variant of scFvC1 (VH, linker, VL); also called clone F7; source: E. coli XL1 blue, periplasmic fraction, purified (Ni-NTA); not shown: NP3 (N-terminal domain of the phage P3 protein), C-terminal, kept
For B6, the binding result in [4] and in assay [2] was “binds” throughout. Also, the figures for the Kd with 6xHis-RhoAL63 and with 6xHis-RhoBL63 were 2.33 nM and 4.94 nM, respectively.

B7: scFvD10 (soluble, in fusion with the N-terminal domain of the phage P3 protein) (scFv, V domains shown)
VH: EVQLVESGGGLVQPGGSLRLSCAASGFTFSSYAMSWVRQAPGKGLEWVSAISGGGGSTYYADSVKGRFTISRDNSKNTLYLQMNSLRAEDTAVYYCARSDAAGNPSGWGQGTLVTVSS
VL: SSELTQDPAVSVALGQTVRITCQGDSLRSYYASWYQQKPGQAPVLVIYGKNNRPSGIPDRFSGSSSGNTASLTITGAQAEDEADYYCNSRDSSGNHAYVFGGGTKLTVL
notes: evolved variant of scFvC1 (VH, linker, VL); also called clone D10; source: E. coli XL1 blue, periplasmic fraction, purified (Ni-NTA); not shown: NP3 (N-terminal domain of the phage P3 protein), C-terminal, kept
Regarding B7, the binding result is reported as “binds” in [4] and “no binding” in [2]. For the same molecule, the Kd with 6xHis-RhoAL63 amounted to 3.38 nM.
